The source of these data is PMC10786891, “Massively parallel profiling of RNA-targeting CRISPR-Cas13d”.

B1: target 1 insG 3' of 18,insG 3' of 6 (mixed)
RNA 1: CACCCGUGCAAAAAUGCAGGGGUCUAAAACUGAGCGGAUAACCUCUCUAUGG
RNA 2: GGGAAUGGAUCCACAUCUACGAAUUCGUACCAUAGGAGAGGUUAUCCGGCUCACCGAGAUCGGAAGAGCACACGU
B2: target 1 insC 3' of 3,insG 3' of 3 (mixed)
RNA 1: CACCCGUGCAAAAAUGCAGGGGUCUAAAACUGAGCGGAUAACCUCUCUAUGG
RNA 2: GGGAAUGGAUCCACAUCUACGAAUUCGUACCAUAGAGAGGUUAUCCGCUCGCACCGAGAUCGGAAGAGCACACGU
B3: target 2 MT 5'PFS AAG 3'PFS CCG (mixed)
RNA 1: CACCCGUGCAAAAUUGCAGGGGUCUAAAACCUUCUCCAAAUUGUUUCAUCCU
RNA 2: GGGAAUGGAUCCACAUCUACGAAUUCAAGAGGAUGAAACAAUUUGGAGAAGCCGAGAUCGGAAGAGCACACGU
B4: target 2 MT 5'PFS AAG 3'PFS CCA (mixed)
RNA 1: CACCCGUGCAAAAUUGCAGGGGUCUAAAACCUUCUCCAAAUUGUUUCAUCCU
RNA 2: GGGAAUGGAUCCACAUCUACGAAUUCAAGAGGAUGAAACAAUUUGGAGAAGCCAAGAUCGGAAGAGCACACGU
B5: target 2 MT 5'PFS ACU 3'PFS CGG (mixed)
RNA 1: CACCCGUGCAAAAUUGCAGGGGUCUAAAACCUUCUCCAAAUUGUUUCAUCCU
RNA 2: GGGAAUGGAUCCACAUCUACGAAUUCACUAGGAUGAAACAAUUUGGAGAAGCGGAGAUCGGAAGAGCACACGU
B6: target 2 MT 5'PFS AAA 3'PFS CUU (mixed)
RNA 1: CACCCGUGCAAAAUUGCAGGGGUCUAAAACCUUCUCCAAAUUGUUUCAUCCU
RNA 2: GGGAAUGGAUCCACAUCUACGAAUUCAAAAGGAUGAAACAAUUUGGAGAAGCUUAGAUCGGAAGAGCACACGU
B7: target 2 MT 5'PFS GCC 3'PFS AGG (mixed)
RNA 1: CACCCGUGCAAAAUUGCAGGGGUCUAAAACCUUCUCCAAAUUGUUUCAUCCU
RNA 2: GGGAAUGGAUCCACAUCUACGAAUUCGCCAGGAUGAAACAAUUUGGAGAAGAGGAGAUCGGAAGAGCACACGU
B8: target 2 MT 5'PFS GCC 3'PFS CGC (mixed)
RNA 1: CACCCGUGCAAAAUUGCAGGGGUCUAAAACCUUCUCCAAAUUGUUUCAUCCU
RNA 2: GGGAAUGGAUCCACAUCUACGAAUUCGCCAGGAUGAAACAAUUUGGAGAAGCGCAGAUCGGAAGAGCACACGU
B9: target 2 MT 5'PFS UCU 3'PFS AGA (mixed)
RNA 1: CACCCGUGCAAAAUUGCAGGGGUCUAAAACCUUCUCCAAAUUGUUUCAUCCU
RNA 2: GGGAAUGGAUCCACAUCUACGAAUUCUCUAGGAUGAAACAAUUUGGAGAAGAGAAGAUCGGAAGAGCACACGU
B10: target 2 MT 5'PFS GGA 3'PFS CUA (mixed)
RNA 1: CACCCGUGCAAAAUUGCAGGGGUCUAAAACCUUCUCCAAAUUGUUUCAUCCU
RNA 2: GGGAAUGGAUCCACAUCUACGAAUUCGGAAGGAUGAAACAAUUUGGAGAAGCUAAGAUCGGAAGAGCACACGU
B11: target 2 MT 5'PFS GGA 3'PFS CUC (mixed)
RNA 1: CACCCGUGCAAAAUUGCAGGGGUCUAAAACCUUCUCCAAAUUGUUUCAUCCU
RNA 2: GGGAAUGGAUCCACAUCUACGAAUUCGGAAGGAUGAAACAAUUUGGAGAAGCUCAGAUCGGAAGAGCACACGU
B12: target 2 MT 5'PFS AAU 3'PFS UUC (mixed)
RNA 1: CACCCGUGCAAAAUUGCAGGGGUCUAAAACCUUCUCCAAAUUGUUUCAUCCU
RNA 2: GGGAAUGGAUCCACAUCUACGAAUUCAAUAGGAUGAAACAAUUUGGAGAAGUUCAGAUCGGAAGAGCACACGU
B13: target 2 MT 5'PFS GCC 3'PFS CGA (mixed)
RNA 1: CACCCGUGCAAAAUUGCAGGGGUCUAAAACCUUCUCCAAAUUGUUUCAUCCU
RNA 2: GGGAAUGGAUCCACAUCUACGAAUUCGCCAGGAUGAAACAAUUUGGAGAAGCGAAGAUCGGAAGAGCACACGU
B14: target 2 MT 5'PFS AAU 3'PFS UUA (mixed)
RNA 1: CACCCGUGCAAAAUUGCAGGGGUCUAAAACCUUCUCCAAAUUGUUUCAUCCU
RNA 2: GGGAAUGGAUCCACAUCUACGAAUUCAAUAGGAUGAAACAAUUUGGAGAAGUUAAGAUCGGAAGAGCACACGU
B15: target 2 MT 5'PFS AUG 3'PFS UCA (mixed)
RNA 1: CACCCGUGCAAAAUUGCAGGGGUCUAAAACCUUCUCCAAAUUGUUUCAUCCU
RNA 2: GGGAAUGGAUCCACAUCUACGAAUUCAUGAGGAUGAAACAAUUUGGAGAAGUCAAGAUCGGAAGAGCACACGU
B16: target 2 MT 5'PFS CGA 3'PFS CCG (mixed)
RNA 1: CACCCGUGCAAAAUUGCAGGGGUCUAAAACCUUCUCCAAAUUGUUUCAUCCU
RNA 2: GGGAAUGGAUCCACAUCUACGAAUUCCGAAGGAUGAAACAAUUUGGAGAAGCCGAGAUCGGAAGAGCACACGU
B17: target 2 MT 5'PFS CGA 3'PFS CCA (mixed)
RNA 1: CACCCGUGCAAAAUUGCAGGGGUCUAAAACCUUCUCCAAAUUGUUUCAUCCU
RNA 2: GGGAAUGGAUCCACAUCUACGAAUUCCGAAGGAUGAAACAAUUUGGAGAAGCCAAGAUCGGAAGAGCACACGU
B18: target 2 MT 5'PFS AAA 3'PFS CUC (mixed)
RNA 1: CACCCGUGCAAAAUUGCAGGGGUCUAAAACCUUCUCCAAAUUGUUUCAUCCU
RNA 2: GGGAAUGGAUCCACAUCUACGAAUUCAAAAGGAUGAAACAAUUUGGAGAAGCUCAGAUCGGAAGAGCACACGU
B19: target 2 MT 5'PFS GGA 3'PFS CUU (mixed)
RNA 1: CACCCGUGCAAAAUUGCAGGGGUCUAAAACCUUCUCCAAAUUGUUUCAUCCU
RNA 2: GGGAAUGGAUCCACAUCUACGAAUUCGGAAGGAUGAAACAAUUUGGAGAAGCUUAGAUCGGAAGAGCACACGU
B20: target 2 MT 5'PFS GCC 3'PFS CGG (mixed)
RNA 1: CACCCGUGCAAAAUUGCAGGGGUCUAAAACCUUCUCCAAAUUGUUUCAUCCU
RNA 2: GGGAAUGGAUCCACAUCUACGAAUUCGCCAGGAUGAAACAAUUUGGAGAAGCGGAGAUCGGAAGAGCACACGU
B21: target 2 MT 5'PFS AUG 3'PFS UCC (mixed)
RNA 1: CACCCGUGCAAAAUUGCAGGGGUCUAAAACCUUCUCCAAAUUGUUUCAUCCU
RNA 2: GGGAAUGGAUCCACAUCUACGAAUUCAUGAGGAUGAAACAAUUUGGAGAAGUCCAGAUCGGAAGAGCACACGU
B22: target 2 MT 5'PFS ACU 3'PFS CGC (mixed)
RNA 1: CACCCGUGCAAAAUUGCAGGGGUCUAAAACCUUCUCCAAAUUGUUUCAUCCU
RNA 2: GGGAAUGGAUCCACAUCUACGAAUUCACUAGGAUGAAACAAUUUGGAGAAGCGCAGAUCGGAAGAGCACACGU
B23: target 2 MT 5'PFS AUG 3'PFS UCU (mixed)
RNA 1: CACCCGUGCAAAAUUGCAGGGGUCUAAAACCUUCUCCAAAUUGUUUCAUCCU
RNA 2: GGGAAUGGAUCCACAUCUACGAAUUCAUGAGGAUGAAACAAUUUGGAGAAGUCUAGAUCGGAAGAGCACACGU
B24: target 2 MT 5'PFS AGG 3'PFS CGC (mixed)
RNA 1: CACCCGUGCAAAAUUGCAGGGGUCUAAAACCUUCUCCAAAUUGUUUCAUCCU
RNA 2: GGGAAUGGAUCCACAUCUACGAAUUCAGGAGGAUGAAACAAUUUGGAGAAGCGCAGAUCGGAAGAGCACACGU
B25: target 2 MT 5'PFS AAU 3'PFS UUU (mixed)
RNA 1: CACCCGUGCAAAAUUGCAGGGGUCUAAAACCUUCUCCAAAUUGUUUCAUCCU
RNA 2: GGGAAUGGAUCCACAUCUACGAAUUCAAUAGGAUGAAACAAUUUGGAGAAGUUUAGAUCGGAAGAGCACACGU
B26: target 2 MT 5'PFS ACU 3'PFS CGA (mixed)
RNA 1: CACCCGUGCAAAAUUGCAGGGGUCUAAAACCUUCUCCAAAUUGUUUCAUCCU
RNA 2: GGGAAUGGAUCCACAUCUACGAAUUCACUAGGAUGAAACAAUUUGGAGAAGCGAAGAUCGGAAGAGCACACGU
B27: target 2 MT 5'PFS GGA 3'PFS CUG (mixed)
RNA 1: CACCCGUGCAAAAUUGCAGGGGUCUAAAACCUUCUCCAAAUUGUUUCAUCCU
RNA 2: GGGAAUGGAUCCACAUCUACGAAUUCGGAAGGAUGAAACAAUUUGGAGAAGCUGAGAUCGGAAGAGCACACGU

The data set deals with T1, EsCas13d, nuclease-dead (Eubacterium siraeum, UniProt B0MS50, R295A;H300A;R849A;H854A).
T1 sequence: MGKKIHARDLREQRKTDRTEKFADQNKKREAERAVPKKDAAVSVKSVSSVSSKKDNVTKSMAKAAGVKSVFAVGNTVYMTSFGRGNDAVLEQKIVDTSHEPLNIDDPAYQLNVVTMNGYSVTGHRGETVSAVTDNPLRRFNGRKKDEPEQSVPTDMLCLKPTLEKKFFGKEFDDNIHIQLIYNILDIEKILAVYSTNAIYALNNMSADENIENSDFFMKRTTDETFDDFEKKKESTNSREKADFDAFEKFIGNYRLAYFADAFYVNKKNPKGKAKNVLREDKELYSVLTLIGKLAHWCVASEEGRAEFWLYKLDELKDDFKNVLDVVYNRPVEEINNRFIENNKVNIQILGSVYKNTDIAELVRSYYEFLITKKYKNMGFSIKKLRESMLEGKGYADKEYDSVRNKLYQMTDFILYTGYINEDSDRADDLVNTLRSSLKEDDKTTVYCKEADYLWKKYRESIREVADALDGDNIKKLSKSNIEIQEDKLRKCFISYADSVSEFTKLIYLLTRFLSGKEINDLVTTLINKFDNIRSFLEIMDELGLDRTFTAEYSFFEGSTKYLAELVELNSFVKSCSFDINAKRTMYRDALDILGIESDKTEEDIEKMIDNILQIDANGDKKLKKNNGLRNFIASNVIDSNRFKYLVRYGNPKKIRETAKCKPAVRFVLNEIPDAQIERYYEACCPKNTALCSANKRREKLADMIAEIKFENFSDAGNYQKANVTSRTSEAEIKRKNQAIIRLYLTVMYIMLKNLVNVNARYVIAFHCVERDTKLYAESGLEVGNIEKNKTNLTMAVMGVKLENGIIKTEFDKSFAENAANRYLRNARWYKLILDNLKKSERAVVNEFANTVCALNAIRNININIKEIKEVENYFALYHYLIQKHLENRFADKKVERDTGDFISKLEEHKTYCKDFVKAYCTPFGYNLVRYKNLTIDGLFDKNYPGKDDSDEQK
As to the kind of experiment: crRNA (strand 1, pre-loaded); Mg2+; 40 mM Tris-HCl pH 7.5, 150 mM NaCl, 6 mM MgCl2, 1 mM DTT, 0.1% Tween-20, 0.2 mg/ml BSA; 25 C; 10 min per concentration, then washed. The settings on record: tags: His6-TwinStrep-SUMO cleaved; N-terminal SNAP kept (SNAP-Surface 488); label: 3' end held by stalled T7 RNA polymerase.
For the molecule B1, binding was characterised by a dissociation constant (Kd) of 71 ± 28 nM.
With B2, the affinity, expressed as Kd, was 8.5 ± 0.6 nM.
As to B3, binding was put at a Kd of 6.3 ± 0.9 nM.
For the molecule B4, the Kd (commonly a measure of binding affinity in units of concentration) amounted to 8.7 ± 1.6 nM.
Next, B5: 3.47 ± 0.28 nM; B6: 3.9 ± 0.6 nM.
As to B7, the Kd amounted to 16.4 ± 2.4 nM. Against the preceding molecule, the Kd is about 4.2-fold higher.
In turn, B8 yielded a Kd of 11.4 ± 1.6 nM.
On to B9, for which the Kd was 40 ± 18 nM.
Next, B10: 9.9 ± 1.3 nM.
Take B11: the Kd was 13.4 ± 1.5 nM.
For B12, the Kd was 9.7 ± 1.5 nM.
As to B13, the Kd is 14 ± 3.3 nM.
The same measure for B14: 6.5 ± 0.8 nM; for B15: 15 ± 5 nM; for B16: 11.1 ± 1.6 nM.
Next, B17: 31 ± 8 nM; B18: 6.5 ± 1.2 nM; B19: 10.5 ± 0.8 nM.
The molecule B20 gave a Kd of 13.5 ± 2.2 nM.
In turn, B21 registered a Kd of 24.4 ± 2.8 nM.
Molecule B22 came in with a Kd of 7.1 ± 1 nM.
Next, B23: 17.4 ± 2.6 nM; B24: 4.7 ± 0.5 nM; B25: 12.4 ± 2.5 nM.
In turn, B26 gave a Kd of 4.1 ± 0.4 nM.
The same measure for B27: 9.2 ± 0.8 nM.
